Reference: article PMC8565348

What was measured:
[1] = biological target: His6-BrxU WT (Escherichia fergusonii ATCC 35469); experiment: SEC; analytical SEC, Superdex 200 Increase 5/150, 20 mM Tris-HCl pH 7.9, 150 mM NaCl; 500 nM BrxU pre-incubated at 37°C for 15 min with 10 mM MgSO4, no nucleotide; dimer to monomers
[2] = biological target: untagged BrxU (Escherichia fergusonii ATCC 35469); experiment: SEC; analytical SEC, Superdex 200 Increase 5/150, 20 mM Tris-HCl pH 7.9, 150 mM NaCl; 500 nM BrxU pre-incubated at 37°C for 15 min; no nucleotide, no MgSO4; dimer to monomers

stoichiometry N [1] | stoichiometry N [2] | Substance
2 | – | His6-BrxU WT (enzyme)
– | 2 | untagged BrxU (enzyme)
